The experiment deals with TB-1. The experiment is described as follows: ELISA binding of G4P to immobilized biotinylated oligonucleotide. The conditions noted are these: G4, Bulge, read-out: Kd (nM) ± SD.

B1: G4P: Polypeptide probe: two RHAU23 G4-binding domains, linker of three GTGSGA hexapeptides, C-terminal 3xFLAG tag, N-terminal HIS tag; SEQ ID NO: 4 (protein)
chain: MGSSHHHHHHSSGLVPRGSHMHPGHLKGREIGMWYAKKQGQKNKGTGSGAGTGSGAGTGSGAHPGHLKGREIGMWYAKKQGQKNKGTGSGADYKDHDGDYKDHDIDYKDDDDK
modifications: Fully synthetic
In general, Kd refers to the constant that tells how readily two partners part at equilibrium. For B1, the Kd was 0.74 ± 0.05 nM.

The values above are taken from patent US11767343B2, “Peptide probe for recognition of G-quadruplex and use thereof in detection of G-quadruplex in cell” (Changzhi Medical College, priority 2020, dated 2023).
